Where two headings read alike, the source gives them in different places.
T1: FcgRIIaH (human, UniProt P12318)
T1 chain: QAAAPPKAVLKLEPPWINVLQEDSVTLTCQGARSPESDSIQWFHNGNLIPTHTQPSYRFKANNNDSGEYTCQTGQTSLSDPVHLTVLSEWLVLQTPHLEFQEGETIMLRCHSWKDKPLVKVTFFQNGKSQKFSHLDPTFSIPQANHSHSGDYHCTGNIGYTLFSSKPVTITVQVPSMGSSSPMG


What was measured:
Assay in all cases: SPR
FcgRIIIaV [1] = target: T2, FcgRIIIaV (human, UniProt P08637)
FcgRIIaH = target: T1, FcgRIIaH
FcgRIIIaV [2] = target: T2, FcgRIIIaV; remark: listed apart in the source

T2 sequence (P08637 17-208 F176V): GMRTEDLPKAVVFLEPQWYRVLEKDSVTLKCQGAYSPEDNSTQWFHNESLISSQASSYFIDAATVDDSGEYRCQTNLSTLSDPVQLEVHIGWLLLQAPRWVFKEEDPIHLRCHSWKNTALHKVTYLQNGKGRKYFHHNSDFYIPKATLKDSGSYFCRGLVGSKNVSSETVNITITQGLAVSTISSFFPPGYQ

Row | Binder | Kd (FcgRIIIaV [1]) | Kd (FcgRIIaH) | Kd (FcgRIIIaV [2])
1 | IL6R-AP002/IL6R-BP257/IL6R-L (antibody) chain 1: QVQLQESGPGLVKPSETLSLTCAVSGHSISHDHAWSWVRQPPGEGLEWIGFISYSGITNYNPSLQGRVTISRDNSKNTLYLQMNSLRAEDTAVYYCARSLARTTAMDYWGEGTLVTVSSASTKGPSVFPLAPSSKSTSGGTAALGCLVKDYFPEPVTVSWNSGALTSGVHTFPAVLQSSGLYSLSSVVTVPSSSLGTQTYICNVNHKPSNTKVDKKVEPKSCDKTHTCPPCPAPDLLGDDSVFLFPPKPKDTLMISRTPEVTCVVVDVSDEDGEVKFNWYVDGVEVHNAKTKPREEQYNSTYRVVSVLTVLHQDWLNGKEYKCKVSNKALPRPIEKTISKAKGQPREPQVYTLPPSRKELTKNQVSLTCLVKGFYPSDIAVEWESNGQPENNYKTTPPVLDSDGSFFLYSKLTVDKSRWQQGNVFSCSVMHEALHNRYTQKSLSLSP chain 2: QVQLQESGPGLVKPSETLSLTCAVSGHSISHDHAWSWVRQPPGEGLEWIGFISYSGITNYNPSLQGRVTISRDNSKNTLYLQMNSLRAEDTAVYYCARSLARTTAMDYWGEGTLVTVSSASTKGPEVFPLAPSSKSTSGGTAALGCLVKDYFPEPVTVSWNSGALTSGVHTFPAVLQSSGLYSLSSVVTVPSSSLGTQTYICNVNHKPSNTKVDKKVEPKSCDKTHTCPPCPAPDLLGDDSVFLFPPKPKDTLMISRTPEVTCVVVDVSDEDGEVKFNWYVDGVEVHNAKTKPREEQYNSTYRVVSVLTVLHQDWLNGKEYKCKVSNKALPRPIEKTISKAKGQPREPQVYTLPPSRDELTKNQVSLTCLVKGFYPSDIAVEWESNGQPENNYKTTPPVLDSDGSFFLYSKLTVDKSRWQQGNVFSCSVMHEALHNHYTQESLSLSP chain 3: not shown | 14 µM |  | 
2 | IL6R-AP002/IL6R-BP256/IL6R-L (antibody) chain 1: QVQLQESGPGLVKPSETLSLTCAVSGHSISHDHAWSWVRQPPGEGLEWIGFISYSGITNYNPSLQGRVTISRDNSKNTLYLQMNSLRAEDTAVYYCARSLARTTAMDYWGEGTLVTVSSASTKGPSVFPLAPSSKSTSGGTAALGCLVKDYFPEPVTVSWNSGALTSGVHTFPAVLQSSGLYSLSSVVTVPSSSLGTQTYICNVNHKPSNTKVDKKVEPKSCDKTHTCPPCPAPDLLGDDSVFLFPPKPKDTLMISRTPEVTCVVVDVSDEDGEVKFNWYVDGVEVHNAKTKPREEQYNSTYRVVSVLTVLHQDWLNGKEYKCKVSNKALPRPIEKTISKAKGQPREPQVYTLPPSRKELTKNQVSLTCLVKGFYPSDIAVEWESNGQPENNYKTTPPVLDSDGSFFLYSKLTVDKSRWQQGNVFSCSVMHEALHNRYTQKSLSLSP chain 2: QVQLQESGPGLVKPSETLSLTCAVSGHSISHDHAWSWVRQPPGEGLEWIGFISYSGITNYNPSLQGRVTISRDNSKNTLYLQMNSLRAEDTAVYYCARSLARTTAMDYWGEGTLVTVSSASTKGPDVFPLAPSSKSTSGGTAALGCLVKDYFPEPVTVSWNSGALTSGVHTFPAVLQSSGLYSLSSVVTVPSSSLGTQTYICNVNHKPSNTKVDKKVEPKSCDKTHTCPPCPAPDLLGDDSVFLFPPKPKDTLMISRTPEVTCVVVDVSDEDGEVKFNWYVDGVEVHNAKTKPREEQYNSTYRVVSVLTVLHQDWLNGKEYKCKVSNKALPRPIEKTISKAKGQPREPQVYTLPPSRDELTKNQVSLTCLVKGFYPSDIAVEWESNGQPENNYKTTPPVLDSDGSFFLYSKLTVDKSRWQQGNVFSCSVMHEALHNHYTQESLSLSP chain 3: not shown | 17 µM |  | 
3 | IL6R-AP009/IL6R-BP259/IL6R-L (antibody) chain 1: QVQLQESGPGLVKPSETLSLTCAVSGHSISHDHAWSWVRQPPGEGLEWIGFISYSGITNYNPSLQGRVTISRDNSKNTLYLQMNSLRAEDTAVYYCARSLARTTAMDYWGEGTLVTVSSASTKGPSVFPLAPSSKSTSGGTAALGCLVKDYFPEPVTVSWNSGALTSGVHTFPAVLQSSGLYSLSSVVTVPSSSLGTQTYICNVNHKPSNTKVDKKVEPKSCDKTHTCPPCPAPDLLGDDSVFLFPPKPKDTLMISRTPEVTCVVVDVSDEDGEVKFNWYVDGVEVHNAKTKPREEQDNSTYRVVSVLTVLHQDWLNGKEYKCKVSNKALPRPIEKTISKAKGQPREPQVYTLPPSRKELTKNQVSLTCLVKGFYPSDIAVEWESNGQPENNYKTTPPVLDSDGSFFLYSKLTVDKSRWQQGNVFSCSVMHEALHNRYTQKSLSLSP chain 2: QVQLQESGPGLVKPSETLSLTCAVSGHSISHDHAWSWVRQPPGEGLEWIGFISYSGITNYNPSLQGRVTISRDNSKNTLYLQMNSLRAEDTAVYYCARSLARTTAMDYWGEGTLVTVSSASTKGPDVFPLAPSSKSTSGGTAALGCLVKDYFPEPVTVSWNSGALTSGVHTFPAVLQSSGLYSLSSVVTVPSSSLGTQTYICNVNHKPSNTKVDKKVEPKSCDKTHTCPPCPAPDLLGDDSVFLFPPKPKDTLMISRTPEVTCVVVDVSDEDGEVKFNWYVDGVEVHNAKTKPREEQDNSTYRVVSVLTVLHQDWLNGKEYKCKVSNKALPRPIEKTISKAKGQPREPQVYTLPPSRDELTKNQVSLTCLVKGFYPSDIAVEWESNGQPENNYKTTPPVLDSDGSFFLYSKLTVDKSRWQQGNVFSCSVMHEALHNHYTQESLSLSP chain 3: not shown | 22 µM |  | 
4 | IL6R-AP009/IL6R-BP260/IL6R-L (antibody) chain 1: QVQLQESGPGLVKPSETLSLTCAVSGHSISHDHAWSWVRQPPGEGLEWIGFISYSGITNYNPSLQGRVTISRDNSKNTLYLQMNSLRAEDTAVYYCARSLARTTAMDYWGEGTLVTVSSASTKGPSVFPLAPSSKSTSGGTAALGCLVKDYFPEPVTVSWNSGALTSGVHTFPAVLQSSGLYSLSSVVTVPSSSLGTQTYICNVNHKPSNTKVDKKVEPKSCDKTHTCPPCPAPDLLGDDSVFLFPPKPKDTLMISRTPEVTCVVVDVSDEDGEVKFNWYVDGVEVHNAKTKPREEQDNSTYRVVSVLTVLHQDWLNGKEYKCKVSNKALPRPIEKTISKAKGQPREPQVYTLPPSRKELTKNQVSLTCLVKGFYPSDIAVEWESNGQPENNYKTTPPVLDSDGSFFLYSKLTVDKSRWQQGNVFSCSVMHEALHNRYTQKSLSLSP chain 2: QVQLQESGPGLVKPSETLSLTCAVSGHSISHDHAWSWVRQPPGEGLEWIGFISYSGITNYNPSLQGRVTISRDNSKNTLYLQMNSLRAEDTAVYYCARSLARTTAMDYWGEGTLVTVSSASTKGPEVFPLAPSSKSTSGGTAALGCLVKDYFPEPVTVSWNSGALTSGVHTFPAVLQSSGLYSLSSVVTVPSSSLGTQTYICNVNHKPSNTKVDKKVEPKSCDKTHTCPPCPAPDLLGDDSVFLFPPKPKDTLMISRTPEVTCVVVDVSDEDGEVKFNWYVDGVEVHNAKTKPREEQDNSTYRVVSVLTVLHQDWLNGKEYKCKVSNKALPRPIEKTISKAKGQPREPQVYTLPPSRDELTKNQVSLTCLVKGFYPSDIAVEWESNGQPENNYKTTPPVLDSDGSFFLYSKLTVDKSRWQQGNVFSCSVMHEALHNHYTQESLSLSP chain 3: not shown | 16 µM |  | 

Now from value to binder:

Row | Kd (FcgRIIIaV [1]) | Kd (FcgRIIaH) | Kd (FcgRIIIaV [2]) | Binder
5 |  | 8.9 µM | 23 µM | IL6R-AP029/IL6R-BP407/IL6R-L (antibody) chain 1: QVQLQESGPGLVKPSETLSLTCAVSGHSISHDHAWSWVRQPPGEGLEWIGFISYSGITNYNPSLQGRVTISRDNSKNTLYLQMNSLRAEDTAVYYCARSLARTTAMDYWGEGTLVTVSSASTKGPSVFPLAPSSKSTSGGTAALGCLVKDYFPEPVTVSWNSGALTSGVHTFPAVLQSSGLYSLSSVVTVPSSSLGTQTYICNVNHKPSNTKVDKKVEPKSCDKTHTCPPCPAPDLLGDDSVFLFPPKPKDTLMISRTPEVTCVVVDVSEEDGEVKFNWYVDGVEVHNAKTKPREEQDNSTYRVVSVLTVLHQDWLNGKEYKCKVSNKALPRPIEKTISKAKGQPREPQVYTLPPSRKELTKNQVSLTCLVKGFYPSDIAVEWESNGQPENNYKTTPPVLDSDGSFFLYSKLTVDKSRWQQGNVFSCSVMHEALHNRYTQKSLSLSP chain 2: QVQLQESGPGLVKPSETLSLTCAVSGHSISHDHAWSWVRQPPGEGLEWIGFISYSGITNYNPSLQGRVTISRDNSKNTLYLQMNSLRAEDTAVYYCARSLARTTAMDYWGEGTLVTVSSASTKGPSVFPLAPSSKSTSGGTAALGCLVKDYFPEPVTVSWNSGALTSGVHTFPAVLQSSGLYSLSSVVTVPSSSLGTQTYICNVNHKPSNTKVDKKVEPKSCDKTHTCPPCPAPDLDGDDSVFLFPPKPKDTLMISRTPEVTCVVVDVSEEDGEVKFNWYVDGVEVHNAKTKPREEQDNSTYRVVSVLTVLHQDWLNGKEYKCKVSNKALPRPIEKTISKAKGQPREPQVYTLPPSRDELTKNQVSLTCLVKGFYPSDIAVEWESNGQPENNYKTTPPVLDSDGSFFLYSKLTVDKSRWQQGNVFSCSVMHEALHNHYTQESLSLSP chain 3: not shown
6 |  | 5.1 µM | 21 µM | IL6R-AP029/IL6R-BP410/IL6R-L (antibody) chain 1: QVQLQESGPGLVKPSETLSLTCAVSGHSISHDHAWSWVRQPPGEGLEWIGFISYSGITNYNPSLQGRVTISRDNSKNTLYLQMNSLRAEDTAVYYCARSLARTTAMDYWGEGTLVTVSSASTKGPSVFPLAPSSKSTSGGTAALGCLVKDYFPEPVTVSWNSGALTSGVHTFPAVLQSSGLYSLSSVVTVPSSSLGTQTYICNVNHKPSNTKVDKKVEPKSCDKTHTCPPCPAPDLLGDDSVFLFPPKPKDTLMISRTPEVTCVVVDVSEEDGEVKFNWYVDGVEVHNAKTKPREEQDNSTYRVVSVLTVLHQDWLNGKEYKCKVSNKALPRPIEKTISKAKGQPREPQVYTLPPSRKELTKNQVSLTCLVKGFYPSDIAVEWESNGQPENNYKTTPPVLDSDGSFFLYSKLTVDKSRWQQGNVFSCSVMHEALHNRYTQKSLSLSP chain 2: QVQLQESGPGLVKPSETLSLTCAVSGHSISHDHAWSWVRQPPGEGLEWIGFISYSGITNYNPSLQGRVTISRDNSKNTLYLQMNSLRAEDTAVYYCARSLARTTAMDYWGEGTLVTVSSASTKGPSVFPLAPSSKSTSGGTAALGCLVKDYFPEPVTVSWNSGALTSGVHTFPAVLQSSGLYSLSSVVTVPSSSLGTQTYICNVNHKPSNTKVDKKVEPKSCDKTHTCPPCPAPDLTGDDSVFLFPPKPKDTLMISRTPEVTCVVVDVSEEDGEVKFNWYVDGVEVHNAKTKPREEQDNSTYRVVSVLTVLHQDWLNGKEYKCKVSNKALPRPIEKTISKAKGQPREPQVYTLPPSRDELTKNQVSLTCLVKGFYPSDIAVEWESNGQPENNYKTTPPVLDSDGSFFLYSKLTVDKSRWQQGNVFSCSVMHEALHNHYTQESLSLSP chain 3: not shown
7 |  | 3.4 µM | 33 µM | IL6R-BP404/IL6R-L (antibody) chain 1: QVQLQESGPGLVKPSETLSLTCAVSGHSISHDHAWSWVRQPPGEGLEWIGFISYSGITNYNPSLQGRVTISRDNSKNTLYLQMNSLRAEDTAVYYCARSLARTTAMDYWGEGTLVTVSSASTKGPSVFPLAPSSKSTSGGTAALGCLVKDYFPEPVTVSWNSGALTSGVHTFPAVLQSSGLYSLSSVVTVPSSSLGTQTYICNVNHKPSNTKVDKKVEPKSCDKTHTCPPCPAPDYLGDDSVFLFPPKPKDTLMISRTPEVTCVVVDVSEEDGEVKFNWYVDGVEVHNAKTKPREEQDNSTYRVVSVLTVLHQDWLNGKEYKCKVSNKALPRPIEKTISKAKGQPREPQVYTLPPSRDELTKNQVSLTCLVKGFYPSDIAVEWESNGQPENNYKTTPPVLDSDGSFFLYSKLTVDKSRWQQGNVFSCSVMHEALHNHYTQESLSLSP chain 2: not shown

Reference: patent publication US20260317399 (published 2026)
